# Residue numbers refer to the chain shown, from its start.
# B1: PC9#2 GLP-1 analogue heavy chain fusion (antibody, IgG1)
# VH: HGEGTFTSDVSSYLEEQAAKEFIAWLVKGGGGGGGSGGGGSGGGGSAQVQLVQSGAEVKKPGASVKVSCKASGYTFTSYYMHWVRQAPGQGLEWMGEIHPSGGRTNYNEKFKSRVTMTRDTSTSTVYMELSSLRSEDTAVYYCARERPLYASDLWGQGTTVTVSS
# VL: DIQMTQSPSSLSASVGDRVTITCKASQDVHTAVAWYQQKPGKAPKLLIYHASYRYTGVPSRFSGSGSGTDFTFTISSLQPEDIATYYCQQRYSLWRTFGQGTKLEIK
# notes: IgG1-TM; descriptive name; also called heavy chain peptide antibody fusion of PC9#2
# B2: PC9#2_GLP-1_VL (antibody, IgG1)
# VH: QVQLVQSGAEVKKPGASVKVSCKASGYTFTSYYMHWVRQAPGQGLEWMGEIHPSGGRTNYNEKFKSRVTMTRDTSTSTVYMELSSLRSEDTAVYYCARERPLYASDLWGQGTTVTVSS
# VL: HGEGTFTSDVSSYLEEQAAKEFIAWLVKGGGGGGGSGGGGSGGGGSADIQMTQSPSSLSASVGDRVTITCKASQDVHTAVAWYQQKPGKAPKLLIYHASYRYTGVPSRFSGSGSGTDFTFTISSLQPEDIATYYCQQRYSLWRTFGQGTKLEIK
# notes: IgG1-TM; also called light chain peptide antibody fusion of PC9#2
# B3: HS9_DSB7_V19A (antibody)
# VH: B2 VH with H52S, R57S, N59S, E62Q, K65Q, S66G
# VL: HGEGTFTSDLSKQMEEECARLFIEWLKNGGPSSGAPPPGCGGGGGSGGGGSGGGGSADIQMTQSPSSLSASVGDRVTITCQASQDVKTAVAWYQQKPGKAPKLLIYSASYRYTGVPSRFSGSGSGTDFTFTISSLQPEDIATYYCQQRYSLWRTFGQGTKLEIK
# B4: PC9#3 GLP-1 analogue heavy chain fusion (antibody, IgG1)
# VH: HGEGTFTSDVSSYLEEQAAKEFIAWLVKGGGGGGGSGGGGSGGGGSAEVQLVESGGGLVQPGGSLRLSCAASGFTFNNYAMNWVRQAPGKGLDWVSTISGSGGTTNYADSVKGRFIISRDSSKHTLYLQMNSLRAEDTAVYYCAKDSNWGNFDLWGRGTLVTVSS
# VL: not shown
# notes: IgG1-TM; descriptive name; also called heavy chain peptide antibody fusion of PC9#3
# B5: PC9#6_DSB7_V19A (antibody, IgG1)
# VH: QVQLVQSGAEVKKPGSSVKVSCKASGGTFNSHAISWVRQAPGQGLEWMGGINPILGIANYAQKFQGRVTITADESTSTAYMELSSLRSEDTAVYYCARHYEIQIGRYGMNVYYLMYRFASWGQGTLVTVSS
# VL: HGEGTFTSDLSKQMEEECARLFIEWLKNGGPSSGAPPPGCGGGGGSGGGGSGGGGSADIQMTQSPSSLSASVGDRVTITCRASQGIRSALNWYQQKPGKAPKLLIYNGSTLQSGVPSRFSGSGSGTDFTLTISSLQPEDFAVYYCQQFDGDPTFGQGTKVEIK
# notes: IgG1-TM
# Experiments:
# [1] = molecular target: T1, Recombinant human Avi_PCSK9_Flag_His (human, UniProt Q8NBP7 31-692, biotinylated in the HTRF and LDL-R competition assays); test: HTRF epitope competition: unlabelled compound titrated against a DyLight 650-labelled anti-PCSK9 antibody for biotinylated human PCSK9; % specific binding [panel B]
# T1 construct: In-house protein; also called human PCSK9; huPCSK9
# Procedure: (§1) PCSK9 activity of each peptide-antibody fusions was assessed using Homogenous Time Resolved Fluorescence (HTRF) epitope competition assays.
# (§2) For the assay all samples and reagents were prepared in assay buffer containing 1X Phosphate Buffered Saline, 0.1% BSA (Sigma A9576) and 0.4M Potassium Fluoride. Test samples of peptide-antibody fusions or control antibodies were prepared in 384 well polypropylene plates by 3-fold serial dilutions. […] Delta F% was then calculated using the following equation.
# [2] = molecular target: T1, Recombinant human Avi_PCSK9_Flag_His; test: as above; remark: listed apart in the source
# Procedure: as §1, §2
# [3] = molecular target: human GLP-1 receptor (human, UniProt P43220 24-463); test: cell-based or functional assay
# Chain of human GLP-1 receptor (P43220 24-463): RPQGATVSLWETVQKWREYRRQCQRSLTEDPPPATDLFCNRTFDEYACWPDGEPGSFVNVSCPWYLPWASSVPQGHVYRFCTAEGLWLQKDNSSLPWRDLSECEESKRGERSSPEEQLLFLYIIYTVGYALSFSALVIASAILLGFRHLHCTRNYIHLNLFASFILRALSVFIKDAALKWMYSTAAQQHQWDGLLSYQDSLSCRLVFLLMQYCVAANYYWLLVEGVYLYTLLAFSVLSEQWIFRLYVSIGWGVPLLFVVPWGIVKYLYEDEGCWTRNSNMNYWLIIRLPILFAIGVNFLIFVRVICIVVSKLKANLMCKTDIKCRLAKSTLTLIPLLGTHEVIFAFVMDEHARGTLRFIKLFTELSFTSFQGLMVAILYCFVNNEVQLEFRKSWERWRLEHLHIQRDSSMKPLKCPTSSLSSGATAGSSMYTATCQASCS
# [4] = molecular target: T1, Recombinant human Avi_PCSK9_Flag_His; test: SPR (Biacore 2000)
# [5] = molecular target: T2, Flag/His tagged human CD86 (in-house) (human, UniProt P42081 24-247, limits assumed); test: DELFIA TRF, antigen coated at 10 µg/mL
# T2 sequence (looked up): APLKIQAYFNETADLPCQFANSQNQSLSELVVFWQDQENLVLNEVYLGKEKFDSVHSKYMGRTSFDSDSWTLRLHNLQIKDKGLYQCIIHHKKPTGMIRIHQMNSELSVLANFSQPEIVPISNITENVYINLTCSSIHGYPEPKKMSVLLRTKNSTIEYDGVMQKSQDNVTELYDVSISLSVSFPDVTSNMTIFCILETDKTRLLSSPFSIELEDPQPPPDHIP
# [6] = molecular target: T1, Recombinant human Avi_PCSK9_Flag_His; test: HTRF epitope competition: unlabelled compound titrated against a DyLight 650-labelled anti-PCSK9 antibody for biotinylated human PCSK9; % specific binding [panel C]
# Procedure: as §1, §2
# [7] = molecular target: T1, Recombinant human Avi_PCSK9_Flag_His; test: binding ELISA on coated human PCSK9 (10 ug/mL), single concentration, detection with cryptate labelled Fc specific anti human IgG
binder,measurement,setting,value
B1,IC50 (read off the curve),[1],~0.7 nM
B2,IC50 (read off the curve),[2],~0.4 nM
same,x change (against GLP1-Fc),[3],2.4 fold
same,"x change of Kd, PC9#2_GLP1 against PC9#2",[4],2.7 fold
B3,binding result,[5],no binding (tested: 25 µg/mL)
B4,IC50 (read off the curve),[6],~0.09 nM
B5,binding result,[7],no binding (tested: 100 ug/mL)

# Source: patent publication US20160369010A1 (AstraZeneca / MedImmune, published 2016)
